Target: the molecule itself
Assay: SEC

B1: His6-eVP40 (Ebola virus matrix protein VP40) (natural protein)
chain: MRRVILPTAPPEYMEAIYPVRSNSTIARGGNSNTGFLTPESVNGDTPSNPLRPIADDTIDHASHTPGSVSSAFILEAMVNVISGPKVLMKQIPIWLPLGVADQKTYSFDSTTAAIMLASYTITHFGKATNPLVRVNRLGPGIPDHPLRLLRIGNQAFLQEFVLPPVQLPQYFTFDLTALKLITQPLPAATWTDDTPTGSNGALRPGISFHPKLRPILLPNKSGKKGNSADLTSPEKIQAIMTSLQDFKIVPIDPTKNIMGIEVPETLVHKLTGKKVTSKNGQPIIPVLLPKYIGLDPVAPGDLTMVITQDCDTCHSPASLPAVIEK
stoichiometry N: 2
